The subject of this series is Escherichia coli TOP10. The series can be described thus: shrunken log2 fold change of peptide-encoding DNA abundance (4.5 h post-induction vs induction); higher = less antimicrobial activity (less host growth inhibition). The conditions noted are these: time post-induction: 4.5 h; library: site-saturation at positions 5, 18, 19, 20.
With RRIRERPPRLPRPRPRPMHPPRP, the “shrunken log2 fold change” value was determined as 0.464.
With RRIRERPPRLPRPRPRPTAWPRP the figure was 0.378; with RRIRVRPPRLPRPRPRPLSPPRP, -0.172.
With RRIRYRPPRLPRPRPRPPWFPRP the figure was -0.205; with RRIRPRPPRLPRPRPRPYWLPRP, -0.377; with RRIRIRPPRLPRPRPRPNEFPRP, -0.295.
The value for RRIRFRPPRLPRPRPRPYRWPRP was -0.0143; that for RRIRLRPPRLPRPRPRPIKGPRP was -0.106.
For the sequence RRIRERPPRLPRPRPRPIQDPRP, the “shrunken log2 fold change” value was determined as 0.876.
Take RRIRFRPPRLPRPRPRPIRLPRP: the “shrunken log2 fold change” value came out at 0.0615.
Consider RRIRGRPPRLPRPRPRPQTKPRP, for which the “shrunken log2 fold change” value was found to be 0.8.
With RRIRFRPPRLPRPRPRPDLAPRP the figure was 0.0811; with RRIRCRPPRLPRPRPRPKTAPRP, 0.39; with RRIRDRPPRLPRPRPRPVIFPRP, 0.212.
Turning to RRIRGRPPRLPRPRPRPVHFPRP, the “shrunken log2 fold change” value is 0.562.
Consider RRIRQRPPRLPRPRPRPGPTPRP, for which the “shrunken log2 fold change” value was 0.0273.
The value for RRIRFRPPRLPRPRPRPREDPRP was 0.0505; that for RRIRSRPPRLPRPRPRPELGPRP was 0.547.
For RRIRHRPPRLPRPRPRPDFYPRP, the “shrunken log2 fold change” value is -0.609.
RRIRNRPPRLPRPRPRPSEQPRP: the “shrunken log2 fold change” value was -0.288.
Consider RRIRIRPPRLPRPRPRPLSLPRP, for which the “shrunken log2 fold change” value was -0.868.
On to RRIRYRPPRLPRPRPRPWNGPRP, for which the “shrunken log2 fold change” value is -0.155.
As for RRIRPRPPRLPRPRPRPLFHPRP, the “shrunken log2 fold change” value was -0.131.
With RRIRKRPPRLPRPRPRPWIGPRP the figure was 0.0664; with RRIRVRPPRLPRPRPRPAPSPRP, 0.342; with RRIRWRPPRLPRPRPRPIMKPRP, -0.0768.
Take RRIRARPPRLPRPRPRPKYMPRP: the “shrunken log2 fold change” value is -0.477.
As for RRIRNRPPRLPRPRPRPICIPRP, the “shrunken log2 fold change” value was -0.531.
Take RRIRGRPPRLPRPRPRPYGEPRP: the “shrunken log2 fold change” value is 0.398.
With RRIRLRPPRLPRPRPRPWEPPRP the figure was 0.0843.
With RRIRKRPPRLPRPRPRPQMTPRP the figure was 0.0443.
In the case of RRIRMRPPRLPRPRPRPDFCPRP, the “shrunken log2 fold change” value was 0.0837.
The value for RRIRHRPPRLPRPRPRPVIGPRP was -0.0297; that for RRIRERPPRLPRPRPRPSFAPRP was -0.192.
The value for RRIRMRPPRLPRPRPRPETSPRP was 0.163.
The value for RRIRCRPPRLPRPRPRPWPMPRP was 0.168; that for RRIRWRPPRLPRPRPRPFNYPRP was -0.533; that for RRIRDRPPRLPRPRPRPPEWPRP was 0.557.
As to RRIRTRPPRLPRPRPRPLMVPRP, the “shrunken log2 fold change” value is -0.32.
With RRIRPRPPRLPRPRPRPHCDPRP the figure was 0.22.
Consider RRIRFRPPRLPRPRPRPQAKPRP, for which the “shrunken log2 fold change” value came to 0.128.
With RRIRERPPRLPRPRPRPFWVPRP the figure was 0.0389; with RRIRNRPPRLPRPRPRPAVMPRP, -0.0474; with RRIRLRPPRLPRPRPRPLGQPRP, 0.0405.
For the sequence RRIRFRPPRLPRPRPRPFYGPRP, the “shrunken log2 fold change” value is -0.146.
With RRIRVRPPRLPRPRPRPMVPPRP the figure was -0.189; with RRIRPRPPRLPRPRPRPFPSPRP, 0.0138.
With RRIRNRPPRLPRPRPRPEQRPRP the figure was 0.00383; with RRIRVRPPRLPRPRPRPADSPRP, -0.0859; with RRIRGRPPRLPRPRPRPGFYPRP, 0.512.

Source of the values: the supplement of paper PMC9112550, “Optimization of the antimicrobial peptide Bac7 by deep mutational scanning” (BMC Biology, 2022).
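Further: peptides expressed intracellularly from a pBAD plasmid library in pooled LB shake-flask culture, induced with 0.3% L-arabinose, DNA abundance read by NGS, three biological replicates, DESeq2 with apeglm shrinkage.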
